Laboratory results taken from US11207423B2, “Nanocarriers having surface conjugated peptides and uses thereof for sustained local release of drugs” (Northwestern University, priority 2016, dated 2021).
Ends that are not written are not given here.

Experiments:
[1] = human vitreous; cited from earlier work
[2] = Rabbit eye clearance of Cy7-tagged nanoparticles by in vivo imaging (IVIS)
Experimental: FIG. 8. Slowed rabbit eye clearance in vivo with Cy7-tagged 3R-peptide CDEX conjugate. 20 μl of anchor peptide amino-PEG8-RRYRL-amide (SEQ ID NO:5) conjugate to CDEX (2.5 mg/ml) along with conjugated 0.05 moles/particle Cy7-amine was injected into rabbit eyes on day one. Left eye 14 peptides/particle, right eye 21 peptides/particle.
FIG. 10. In vivo charge and zeta potential-dependent loss of NP from rabbit vitreous expressed as a percentage of the first measured photon flux at day 10 post-injection (taken as day 0). Volume of injection: 25 μl; nanocarrier concentration: 3 mg/ml. [Control: CDEX70-0: (n=2). CDEX70-2R; 64 peptides per particle by BCA (n=3) and CDEX70-3R; 61 peptides per particle by BCA (n=3)]. Half-lives: CDEX-0: 4 days; CDEX-2R: 7 days; CDEX70-3R: 13 days. 2R and 3R peptides are respectively (SEQ ID NO:4) and (SEQ ID NO:5) linked as carbamates of 3pyrrolidineCO-amido-PEG8-CO-peptide to Cy7-CDEX70. Cy7 amine is carbamate-linked at <1 mole/mole NP.
Thus BCA protein analysis of increasing peptide, with time in filtrate after 30 kDa filtration of a loaded carrier sample in buffer estimates the half-life for peptide release in buffer. For confirmation in actual vitreous humor (e.g., rabbit) at time points post injection LC-MS estimation of the peptide in vitreous extract follows precipitation of excess HA after adding 3 volumes of ethanol. […] Free intravitreal peptide is assayed after centrifugation via 30 kDa MWCO spin filter.
Retention of the NP in vitreous was tested in vivo in rabbits. 25 μl of CDEX70-2R-Cy7 (SEQ ID NO:4) 3 mg/ml or CDEX70-3R-Cy7 (SEQ ID NO:5) 3 mg/ml was administered by intravitreal injection and imaged via an IVIS scan after 4 weeks and nine weeks. Left: 4-week experiment. (See FIG. 9). The in vivo diffusion dependent loss of NP from rabbit vitreous expressed as percentage of the first measurement at day 10 post-injection (taken as day 0) is provided in FIG. 10. The determined half-lives of the NP is as follows: CDEX-0-Cy7: 4 days; CDEX-2R-Cy7: 7 days; CDEX70-3R-Cy7: 13 days. In vivo diffusion-dependent loss of NP from rabbit vitreous expressed as Flux of the first measurement at day 10 post-injection (taken as day 0) of CDEX70-2R-Cy7 at 4 different concentrations [Control: 0 mg/ml (n=6). 3 mg/ml (n=3).

[3] = tested on: laser-induced choroidal neovascularization (CNV); details: single intravitreal injection of 1-ul 4 mg/ml 2 days before laser wounding; angiogenesis markers 14 days later
Experimental: FIG. 12B. […] A single injection of 1-ul 4 mg/ml peptide (SEQ ID NO:6) or control is injected into mouse vitreous 2 days before laser wounding of the retina. Angiogenesis markers are detected by antibody stain, 14 days later.

[4] = Zeta potential measurement (electrophoretic light scattering); assay type: physicochemical
Experimental: (§1) Sample characteristics (particle size, polydispersity and zeta-potential) were measured by a dynamic light scattering method using Malvern Zeta Sizer Nano-S90 instrument according to the manufacturer recommendations. Briefly, hydrodynamic diameter (dh) and polydispersity index (PDI) of nanogel/microgels were obtained for 1 mg/mL aqueous solutions at 25° C. in triplicates after sonication for 30 min and centrifugation at 12,000 rpm. Zeta-potential of the samples was measured for the same solutions in standard 1 cm-cuvettesusing zeta-potential option in the company's software. Average of five measurements±SD was registered.
(§2) Peptide concentration was estimated by BCA (Pierce) protein assay against a standard curve of free peptide. Zeta potential and size was measured on non-rhodamine product using electrophoretic light scattering and dynamic light scattering, respectively (Zetasizer, Malvern). The Z averaged particle size is 15 nm and the full width at half maximum of the distribution peak is 24 nm. Zeta potentials for 1-Arg, 2-Arg, 3-Arg and 4-Arg peptide conjugates were 0.07 mV, 2.2 mV, 4.6 mV and 9.2 mV respectively (Table 2).

[5] = Particle size measurement (dynamic light scattering); assay type: physicochemical
Experimental: as §1, §2

For “Ranibizumab: a VEGF inhibitor for treatment of advanced AMD”, the half-life in vitreous [1] is listed as “approximately 9 days”.
With “Cy7-tagged 3R-peptide CDEX conjugate: Anchor peptide amino-PEG8-RRYRL-amide (SEQ ID NO:5) conjugated to CDEX with 0.05 moles/particle Cy7-amine; 14 or 21 peptides/particle (RRYRL-NH2; not fully specified (N-terminus); printed as amino-PEG8-RRYRL-amide; also: Cy7-amine on CDEX particle)” the fluorescence lost ([2]; rabbit left eye, 14 peptides/particle, 20 μl of 2.5 mg/ml) was greater than 90% and the “residence in eye” value ([2]; rabbit right eye, 21 peptides/particle, 20 μl of 2.5 mg/ml) was “longer residence of conjugate in eye”.
In the case of “adipic-Sar-Tyr-Asn-Leu-Tyr-Arg-Val-Arg-Ser-NH2 [SEQ ID NO:6]”, the retinal protective activity [3] is reported as “reduction of laser-induced choroidal neovascularization (CNV)”.
With “CDEX-AP3: CDI-activated CDEX nanogel carbamate-linked to AP3, amino-PEG(12)-CO-Arg-Arg-Ser-Arg-amide (SEQ ID NO:19) (RRSR-NH2; not fully specified (N-terminus); printed as amino-PEG(12)-CO-Arg-Arg-Ser-Arg-amide; also: carbamate-linked to CDI-activated CDEX nanogel)” the Zeta potential [4] was 4.58 mV and the Particle size [5] was 124 ± 1.4 nm.
With “CDEX-3R-Cy7: Cy7-CDEX70 carbamate-linked to 3-pyrrolidine-CONH-PEG(8)-CO-Arg-Arg-Tyr-Arg-Leu-NH2 (SEQ ID NO:5) (RRYRL-NH2; not fully specified (N-terminus); printed as 3-pyrrolidine-CONH-PEG(8)-CO-Arg-Arg-Tyr-Arg-Leu-NH2; also: carbamate-linked to Cy7-CDEX70 nanocarrier)” the “half-life of NP in rabbit vitreous” value ([2]; intravitreal 25 μl, 3 mg/ml, photon flux relative to day 10 post-injection (taken as day 0)) was 13 days, the “retention in eye compared with 2R peptide conjugate at similar peptide loading” value ([2]; rabbit, IVIS scans after 4 and 9 weeks) was “retained longer in the eye” and the Zeta potential [4] was 6.34 ± 1.28 mV. The Particle size [5] was 81.69 ± 7.44 nm.
